Article PMC12523770

Target: MyD88 (myeloid differentiation primary response 88), endogenous in mouse bone marrow-derived macrophages (mouse (endogenous in BMDMs)), P22366
Experiment: cross-linking; WT BMDMs stimulated with 1 µg/mL poly(I:C) for the indicated times (or primed with LPS, positive control); cleared freeze-thaw lysate with 2 mM DSS, 2 h, room temperature; SDS-PAGE, anti-MyD88 blot
Settings: remark: other sources report otherwise

B1: MyD88 (myeloid differentiation primary response 88), endogenous in mouse bone marrow-derived macrophages, P22366 1-296 (natural protein)
chain: MSAGDPRVGSGSLDSFMFSIPLVALNVGVRRRLSLFLNPRTPVAADWTLLAEEMGFEYLEIRELETRPDPTRSLLDAWQGRSGASVGRLLELLALLDREDILKELKSRIEEDCQKYLGKQQNQESEKPLQVARVESSVPQTKELGGITTLDDPLGQTPELFDAFICYCPNDIEFVQEMIRQLEQTDYRLKLCVSDRDVLPGTCVWSIASELIEKRCRRMVVVVSDDYLQSKECDFQTKFALSLSPGVQQKRLIPIKYKAMKKDFPSILRFITICDYTNPCTKSWFWTRLAKALSLP
B1 was tested, and the stoichiometry N was 2.
